Experimental data as given in IntAct's records for PubMed 32493513.

B1: Disrupted in schizophrenia 1 protein (Homo sapiens), Q9NRI5 (parent)
chain: MPGGGPQGAPAAAGGGGVSHRAGSRDCLPPAACFRRRRLARRPGYMRSSTGPGIGFLSPAVGTLFRFPGGVSGEESHHSESRARQCGLDSRGLLVRSPVSKSAAAPTVTSVRGTSAHFGIQLRGGTRLPDRLSWPCGPGSAGWQQEFAAMDSSETLDASWEAACSDGARRVRAAGSLPSAELSSNSCSPGCGPEVPPTPPGSHSAFTSSFSFIRLSLGSAGERGEAEGCPPSREAESHCQSPQEMGAKAASLDGPHEDPRCLSRPFSLLATRVSADLAQAARNSSRPERDMHSLPDMDPGSSSSLDPSLAGCGGDGSSGSGDAHSWDTLLRKWEPVLRDCLLRNRRQMEVISLRLKLQKLQEDAVENDDYDKAETLQQRLEDLEQEKISLHFQLPSRQPALSSFLGHLAAQVQAALRRGATQQASGDDTHTPLRMEPRLLEPTAQDSLHVSITRRDWLLQEKQQLQKEIEALQARMFVLEAKDQQLRREIEEQEQQLQWQGCDLTPLVGQLSLGQLQEVSKALQDTLASAGQIPFHAEPPETIRSLQERIKSLNLSLKEITTKVCMSEKFCSTLRKKVNDIETQLPALLEAKMHAISGNHFWTAKDLTEEIRSLTSEREGLEGLLSKLLVLSSRNVKKLGSVKEDYNRLRREVEHQETAYETSVKENTMKYMETLKNKLCSCKCPLLGKVWEADLEACRLLIQSLQLQEARGSLSVEDERQMDDLEGAAPPIPPRLHSEDKRKTPLKVLEEWKTHLIPSLHCAGGEQKEESYILSAELGEKCEDIGKKLLYLEDQLHTAIHSHDEDLIQSLRRELQMVKETLQAMILQLQPAKEAGEREAAASCMTAGVHEAQA
B2: Disrupted in schizophrenia 1 homolog (Mus musculus), Q811T9 (parent)
chain: MQGGGPRGAPIHSPSHGADSGHGLPPAVAPQRRRLTRRPGYMRSTAGSGIGFLSPAVGMPHPSSAGLTGQQSQHSQSKAGQCGLDPGSHCQASLVGKPFLKSSLVPAVASEGHLHPAQRSMRKRPVHFAVHSKNDSRQSERLTGSFKPGDSGFWQELLSSDSFKSLAPSLDAPWNKGSRGLKTVKPLASPALNGPADIASLPGFQDTFTSSFSFIQLSLGAAGERGEAEGCLPSREAEPLHQRPQEMAAEASSSDRPHGDPRHLWTFSLHAAPGLADLAQVTRSSSRQSECGTVSSSSSDTGFSSQDASSAGGRGDQGGGWADAHGWHTLLREWEPMLQDYLLSNRRQLEVTSLILKLQKCQEKVVEDGDYDTAETLRQRLEELEQEKGRLSWALPSQQPALRSFLGYLAAQIQVALHGATQRAGSDDPEAPLEGQLRTTAQDSLPASITRRDWLIREKQRLQKEIEALQARMSALEAKEKRLSQELEEQEVLLRWPGCDLMALVAQMSPGQLQEVSKALGETLTSANQAPFQVEPPETLRSLRERTKSLNLAVRELTAQVCSGEKLCSSLRRRLSDLDTRLPALLEAKMLALSGSCFSTAKELTEEIWALSSEREGLEMFLGRLLALSSRNSRRLGIVKEDHLRCRQDLALQDAAHKTRMKANTVKCMEVLEGQLSSCRCPLLGRVWKADLETCQLLMQSLQLQEAGSSPHAEDEEQVHSTGEAAQTAALAVPRTPHPEEEKSPLQVLQEWDTHSALSPHCAAGPWKEDSHIVSAEVGEKCEAIGVKLLHLEDQLLGAMYSHDEALFQSLQGELQTVKETLQAMILQLQPTKEAGEASASYPTAGAQETEA

Variants of: B1
Details: with drd2_human DRD2, P14416
Chain of drd2_human DRD2, P14416 (P14416 whole entry): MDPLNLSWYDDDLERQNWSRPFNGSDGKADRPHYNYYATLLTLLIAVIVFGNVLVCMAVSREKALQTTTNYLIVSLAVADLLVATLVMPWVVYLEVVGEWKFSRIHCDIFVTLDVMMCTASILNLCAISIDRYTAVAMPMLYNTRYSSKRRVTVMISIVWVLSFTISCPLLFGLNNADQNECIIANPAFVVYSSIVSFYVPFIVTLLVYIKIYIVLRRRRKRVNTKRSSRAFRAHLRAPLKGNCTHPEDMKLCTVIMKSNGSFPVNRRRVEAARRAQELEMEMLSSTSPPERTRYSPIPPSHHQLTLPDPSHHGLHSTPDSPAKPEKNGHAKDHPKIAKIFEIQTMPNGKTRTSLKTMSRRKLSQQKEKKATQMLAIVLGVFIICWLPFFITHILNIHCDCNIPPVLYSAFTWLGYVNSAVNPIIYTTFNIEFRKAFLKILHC

Row | Variant | effect of a mutation on the interaction
1 | R264Q | increasing interaction

Variants of: B1
Details: with drd2_human DRD2, P14416
Remark: another data set of the same source

Row | Variant | effect of a mutation on the interaction
2 | A83V | decreasing interaction

Variants of: B2
Details: with drd2_human DRD2, P14416

Row | Variant | effect of a mutation on the interaction
3 | L100P | increasing interaction

Variants of: B2
Details: with drd2_mouse Drd2, P61168
Chain of drd2_mouse Drd2, P61168 (P61168 whole entry): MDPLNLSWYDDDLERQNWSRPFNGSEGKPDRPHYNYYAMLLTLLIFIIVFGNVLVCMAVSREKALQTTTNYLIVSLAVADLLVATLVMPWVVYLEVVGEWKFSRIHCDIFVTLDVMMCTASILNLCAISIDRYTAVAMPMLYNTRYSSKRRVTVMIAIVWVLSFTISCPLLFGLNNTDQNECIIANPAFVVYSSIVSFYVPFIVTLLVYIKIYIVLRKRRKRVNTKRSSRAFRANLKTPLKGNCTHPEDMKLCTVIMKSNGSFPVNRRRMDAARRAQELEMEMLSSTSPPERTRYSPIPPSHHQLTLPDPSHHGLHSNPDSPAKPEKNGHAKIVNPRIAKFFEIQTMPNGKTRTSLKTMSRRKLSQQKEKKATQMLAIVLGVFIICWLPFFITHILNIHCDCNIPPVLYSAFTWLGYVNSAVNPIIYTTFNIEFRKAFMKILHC

Row | Variant | effect of a mutation on the interaction
4 | L100P | increasing interaction
